Experiment in all cases: SPR, antibody captured, C2 as analyte;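 further: biacore SPR at 37 °C, anti-C2 mAbs captured via goat anti-human IgG on CM5 chips, double-referenced sensorgrams fit to a 1:1 kinetic or steady-state model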
For one assay, the target named is T1, human C2 K711A (human, UniProt P06681 21-752).
T1 sequence: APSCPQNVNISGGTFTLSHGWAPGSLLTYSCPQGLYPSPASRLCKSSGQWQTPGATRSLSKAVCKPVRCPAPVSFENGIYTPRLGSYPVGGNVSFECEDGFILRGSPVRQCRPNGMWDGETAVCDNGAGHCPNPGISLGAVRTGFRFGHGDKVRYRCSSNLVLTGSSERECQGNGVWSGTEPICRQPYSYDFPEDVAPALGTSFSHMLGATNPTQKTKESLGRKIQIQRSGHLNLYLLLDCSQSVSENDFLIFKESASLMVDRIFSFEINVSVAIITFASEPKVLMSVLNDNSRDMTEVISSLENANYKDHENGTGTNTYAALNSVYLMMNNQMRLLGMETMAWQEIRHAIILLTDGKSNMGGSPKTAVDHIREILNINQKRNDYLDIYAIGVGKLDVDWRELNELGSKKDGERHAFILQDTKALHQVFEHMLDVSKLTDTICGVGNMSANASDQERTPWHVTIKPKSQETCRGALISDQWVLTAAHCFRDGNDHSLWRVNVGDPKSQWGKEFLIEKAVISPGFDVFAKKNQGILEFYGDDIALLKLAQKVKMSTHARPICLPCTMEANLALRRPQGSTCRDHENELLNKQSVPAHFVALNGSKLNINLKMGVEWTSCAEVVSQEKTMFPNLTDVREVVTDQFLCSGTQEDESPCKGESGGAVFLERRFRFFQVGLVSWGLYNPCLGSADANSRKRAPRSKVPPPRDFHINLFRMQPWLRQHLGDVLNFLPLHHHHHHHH

The next assay concerns the target T2, human C2 R688A (human, UniProt P06681 21-752).
T2 sequence: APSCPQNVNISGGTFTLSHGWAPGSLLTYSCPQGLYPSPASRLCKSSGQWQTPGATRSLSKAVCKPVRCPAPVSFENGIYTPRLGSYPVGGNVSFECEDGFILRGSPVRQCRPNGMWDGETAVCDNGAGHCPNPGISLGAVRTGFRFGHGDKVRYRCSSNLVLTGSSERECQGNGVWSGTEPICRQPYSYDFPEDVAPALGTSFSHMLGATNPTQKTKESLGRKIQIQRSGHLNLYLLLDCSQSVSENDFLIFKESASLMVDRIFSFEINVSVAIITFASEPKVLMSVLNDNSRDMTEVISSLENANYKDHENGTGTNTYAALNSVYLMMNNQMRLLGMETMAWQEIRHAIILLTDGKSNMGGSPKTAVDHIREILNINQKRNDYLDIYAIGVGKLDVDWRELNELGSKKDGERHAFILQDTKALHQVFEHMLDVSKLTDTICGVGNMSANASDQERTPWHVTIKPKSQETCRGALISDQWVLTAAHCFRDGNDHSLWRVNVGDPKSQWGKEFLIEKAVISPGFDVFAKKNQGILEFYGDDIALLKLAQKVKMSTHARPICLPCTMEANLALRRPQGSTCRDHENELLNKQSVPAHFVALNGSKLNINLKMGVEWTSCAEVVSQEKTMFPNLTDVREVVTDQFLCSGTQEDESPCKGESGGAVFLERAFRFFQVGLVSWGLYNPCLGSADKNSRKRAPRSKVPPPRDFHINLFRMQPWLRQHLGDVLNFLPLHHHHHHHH

The target in a further assay is T3, human C2 N467A (human, UniProt P06681 21-752).
T3 sequence: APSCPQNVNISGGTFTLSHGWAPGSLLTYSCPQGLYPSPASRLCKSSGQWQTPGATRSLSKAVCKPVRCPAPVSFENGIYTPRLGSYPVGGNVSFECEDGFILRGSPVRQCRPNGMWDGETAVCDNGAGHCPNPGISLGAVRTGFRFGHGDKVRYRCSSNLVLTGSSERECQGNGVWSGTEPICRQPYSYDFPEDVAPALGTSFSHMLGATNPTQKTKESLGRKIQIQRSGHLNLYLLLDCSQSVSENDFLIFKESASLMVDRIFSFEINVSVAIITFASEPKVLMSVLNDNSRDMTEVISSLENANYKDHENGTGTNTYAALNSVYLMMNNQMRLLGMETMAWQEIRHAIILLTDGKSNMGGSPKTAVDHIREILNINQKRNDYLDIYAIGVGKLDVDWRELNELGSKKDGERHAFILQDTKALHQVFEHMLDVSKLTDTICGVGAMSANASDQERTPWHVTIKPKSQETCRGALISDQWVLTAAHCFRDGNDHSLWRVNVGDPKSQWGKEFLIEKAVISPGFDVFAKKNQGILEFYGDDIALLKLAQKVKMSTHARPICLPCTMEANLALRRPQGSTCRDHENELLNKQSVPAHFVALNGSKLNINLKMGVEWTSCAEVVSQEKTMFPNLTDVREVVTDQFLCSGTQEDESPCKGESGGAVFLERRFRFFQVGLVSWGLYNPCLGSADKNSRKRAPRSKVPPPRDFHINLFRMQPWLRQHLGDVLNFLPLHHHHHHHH

Another assay has as its target T4, human C2 T647A (human, UniProt P06681 21-752).
T4 sequence: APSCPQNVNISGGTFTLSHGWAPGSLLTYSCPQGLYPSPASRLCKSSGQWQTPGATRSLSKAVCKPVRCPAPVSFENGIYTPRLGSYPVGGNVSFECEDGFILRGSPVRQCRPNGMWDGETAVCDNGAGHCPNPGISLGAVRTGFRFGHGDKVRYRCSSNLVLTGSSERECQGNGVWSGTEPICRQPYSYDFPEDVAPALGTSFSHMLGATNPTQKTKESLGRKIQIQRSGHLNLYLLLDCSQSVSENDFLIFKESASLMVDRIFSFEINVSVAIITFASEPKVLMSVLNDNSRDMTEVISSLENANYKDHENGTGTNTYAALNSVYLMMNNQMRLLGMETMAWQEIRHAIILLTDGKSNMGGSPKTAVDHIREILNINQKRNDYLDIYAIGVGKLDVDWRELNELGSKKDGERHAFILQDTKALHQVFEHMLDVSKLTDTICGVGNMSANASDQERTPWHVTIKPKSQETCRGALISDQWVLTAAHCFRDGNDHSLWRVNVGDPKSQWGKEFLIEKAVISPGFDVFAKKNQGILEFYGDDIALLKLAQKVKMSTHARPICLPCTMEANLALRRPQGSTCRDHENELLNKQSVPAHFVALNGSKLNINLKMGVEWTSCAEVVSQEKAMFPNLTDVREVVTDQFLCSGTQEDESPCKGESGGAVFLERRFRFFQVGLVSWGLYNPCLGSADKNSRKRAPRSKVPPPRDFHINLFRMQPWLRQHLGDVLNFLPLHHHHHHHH

B1: RF16-226 (antibody, human IgG4 S228P, lambda)
heavy: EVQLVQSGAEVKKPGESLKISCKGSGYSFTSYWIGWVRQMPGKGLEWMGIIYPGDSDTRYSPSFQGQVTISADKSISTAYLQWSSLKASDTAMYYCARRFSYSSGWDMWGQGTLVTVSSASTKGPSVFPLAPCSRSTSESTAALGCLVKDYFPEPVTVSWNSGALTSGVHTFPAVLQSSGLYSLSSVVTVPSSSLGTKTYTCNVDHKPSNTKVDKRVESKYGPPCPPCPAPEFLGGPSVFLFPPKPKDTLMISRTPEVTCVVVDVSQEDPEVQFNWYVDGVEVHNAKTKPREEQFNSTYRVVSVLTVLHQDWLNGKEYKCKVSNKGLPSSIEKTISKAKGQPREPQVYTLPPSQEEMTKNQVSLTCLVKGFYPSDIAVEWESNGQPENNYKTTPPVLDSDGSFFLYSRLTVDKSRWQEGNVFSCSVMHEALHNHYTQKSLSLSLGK
light: SYELTQPPSVSVSPGQTARITCSGDALTSKYVAWYQQKSGLAPLLVIYEDTRRPSGIPAKFSGSSSGSVATLTISGAHGDDEADYYCYSTDASGHQRVFGGGTKLTVLSQPKAAPSVTLFPPSSEELQANKATLVCLISDFYPGAVTVAWKADGSPVKAGVETTKPSKQSNNKYAASSYLSLTPEQWKSHRSYSCQVTHEGSTVEKTVAPTECS
notes: pH-dependent anti-C2 antibody from a phage display library; also called WT
As for B1, the dissociation constant (Kd) with human C2 K711A amounted to 49.6 nM; with human C2 R688A it was 25.3 nM; with human C2 N467A it was 19.7 nM; with human C2 T647A, 147 nM.
